Test results as given in the RNAGym collection of RNA variant scans (doi:10.7554/elife.80360).

B1: CPEB3 Ribozyme (parent)
chain: GGGGGCCACAGCAGAAGCGUUCACGUCGCGGCCCCUGUCAGAUUCUGGUGAAUCUGCGAAUUCUGCUGU

Variants of: B1
Assay: self-cleavage, relative activity (ratio to wild type); higher = more cleavage; co-transcriptional

Compared with G17A G19U, G17A G25A is higher in self-cleavage: 0.114 for the first, 0.201 for the second.

Going from G17A G25C to G17A G25U, the self-cleavage falls from 0.147 to 0.117.

Going from G17A G28A to G17A G28U, the self-cleavage falls from 0.145 to 0.139.

Compared with G17A G30A, G17A G30U is higher in self-cleavage: 0.164 for the first, 0.176 for the second.

First: G17A G31C
Second: G17A G31U
The self-cleavage of the first is higher: 0.135 for the first, 0.113 for the second.

Compared with G17A G37A, G17A G37C is lower in self-cleavage: 0.153 for the first, 0.149 for the second.

First: G17A G41A
Second: G17A G41C
The self-cleavage of the first is lower: 0.133 for the first, 0.141 for the second.

Compared with G17A G41U, G17A G47A is higher in self-cleavage: 0.183 for the first, 0.541 for the second.

First: G17A G47C
Second: G17A G48C
The self-cleavage of the first is higher: 0.641 for the first, 0.599 for the second.

First: G17A G50A
Second: G17A G50C
The self-cleavage of the first is higher: 0.488 for the first, 0.387 for the second.

Compared with G17A G50U, G17A G58A is lower in self-cleavage: 0.547 for the first, 0.259 for the second.

First: G17A G58C
Second: G17A G58U
The self-cleavage of the first is lower: 0.454 for the first, 0.539 for the second.

First: G17A G65A
Second: G17A G65C
The self-cleavage of the first is lower: 0.203 for the first, 0.27 for the second.

Compared with G17A G65U, G17A G68A is higher in self-cleavage: 0.225 for the first, 0.843 for the second.

Compared with G17A G68C, G17A G68U is higher in self-cleavage: 0.704 for the first, 0.751 for the second.

Compared with G17A U20C, G17A U21A is higher in self-cleavage: 0.0978 for the first, 0.384 for the second.

First: G17A U21C
Second: G17A U21G
The self-cleavage of the first is higher: 0.169 for the first, 0.128 for the second.

Compared with G17A U26C, G17A U26G is higher in self-cleavage: 0.335 for the first, 0.413 for the second.

Compared with G17A U36A, G17A U36C is higher in self-cleavage: 0.0937 for the first, 0.225 for the second.

Compared with G17A U36G, G17A U38C is higher in self-cleavage: 0.117 for the first, 0.314 for the second.

Going from G17A U38G to G17A U44A, the self-cleavage rises from 0.11 to 0.397.

First: G17A U44C
Second: G17A U44G
The self-cleavage of the first is lower: 0.255 for the first, 0.302 for the second.

Compared with G17A U46C, G17A U49A is higher in self-cleavage: 0.417 for the first, 0.611 for the second.

Going from G17A U49C to G17A U49G, the self-cleavage falls from 0.486 to 0.444.

Compared with G17A U53A, G17A U53C is lower in self-cleavage: 0.237 for the first, 0.22 for the second.

Compared with G17A U53G, G17A U55G is lower in self-cleavage: 0.38 for the first, 0.16 for the second.

Going from G17A U61G to G17A U62C, the self-cleavage falls from 0.237 to 0.193.

Going from G17A U62G to G17A U64A, the self-cleavage rises from 0.198 to 0.211.

First: G17A U64C
Second: G17A U64G
The self-cleavage of the first is lower: 0.242 for the first, 0.256 for the second.

Going from G17A U67A to G17A U67G, the self-cleavage rises from 0.45 to 0.542.

First: G17A U69C
Second: G17A U69G
The self-cleavage of the first is higher: 0.883 for the first, 0.677 for the second.

First: G17C A23C
Second: G17C A23G
The self-cleavage of the first is higher: 0.178 for the first, 0.116 for the second.

Compared with G17C A23U, G17C A40C is higher in self-cleavage: 0.103 for the first, 0.16 for the second.

Compared with G17C A40G, G17C A40U is higher in self-cleavage: 0.124 for the first, 0.14 for the second.

Compared with G17C A42C, G17C A42U is higher in self-cleavage: 0.14 for the first, 0.151 for the second.

First: G17C A51G
Second: G17C A51U
The self-cleavage of the first is lower: 0.126 for the first, 0.173 for the second.

Compared with G17C A52G, G17C A52U is lower in self-cleavage: 0.196 for the first, 0.133 for the second.

Going from G17C A59U to G17C A60C, the self-cleavage rises from 0.0945 to 0.109.

Compared with G17C A60G, G17C A60U is higher in self-cleavage: 0.127 for the first, 0.183 for the second.

Going from G17C C18U to G17C C22A, the self-cleavage falls from 0.169 to 0.117.

Compared with G17C C22G, G17C C24A is lower in self-cleavage: 0.156 for the first, 0.141 for the second.

First: G17C C24G
Second: G17C C24U
The self-cleavage of the first is higher: 0.208 for the first, 0.109 for the second.

First: G17C C27A
Second: G17C C27G
The self-cleavage of the first is lower: 0.129 for the first, 0.156 for the second.

Compared with G17C C29A, G17C C32A is lower in self-cleavage: 0.367 for the first, 0.113 for the second.

Going from G17C C32U to G17C C33A, the self-cleavage rises from 0.136 to 0.152.

Going from G17C C33U to G17C C34A, the self-cleavage rises from 0.139 to 0.18.

First: G17C C34G
Second: G17C C34U
The self-cleavage of the first is lower: 0.157 for the first, 0.174 for the second.

Compared with G17C C35A, G17C C39A is lower in self-cleavage: 0.135 for the first, 0.081 for the second.

First: G17C C39G
Second: G17C C45G
The self-cleavage of the first is lower: 0.115 for the first, 0.142 for the second.

Compared with G17C C45U, G17C C54A is lower in self-cleavage: 0.121 for the first, 0.1 for the second.

First: G17C C54G
Second: G17C C57A
The self-cleavage of the first is higher: 0.166 for the first, 0.147 for the second.

Compared with G17C C57U, G17C C63G is lower in self-cleavage: 0.18 for the first, 0.103 for the second.

Compared with G17C C63U, G17C C66U is higher in self-cleavage: 0.139 for the first, 0.152 for the second.

Compared with G17C G19A, G17C G19C is higher in self-cleavage: 0.103 for the first, 0.118 for the second.

Compared with G17C G19U, G17C G25A is higher in self-cleavage: 0.0627 for the first, 0.15 for the second.

First: G17C G25C
Second: G17C G25U
The self-cleavage of the first is higher: 0.12 for the first, 0.107 for the second.

First: G17C G28A
Second: G17C G28C
The self-cleavage of the first is lower: 0.127 for the first, 0.129 for the second.

Going from G17C G28U to G17C G30A, the self-cleavage rises from 0.111 to 0.154.

First: G17C G30C
Second: G17C G30U
The self-cleavage of the first is lower: 0.134 for the first, 0.206 for the second.

First: G17C G31C
Second: G17C G31U
The self-cleavage of the first is higher: 0.14 for the first, 0.103 for the second.

Going from G17C G37A to G17C G37C, the self-cleavage rises from 0.0971 to 0.0977.

First: G17C G41C
Second: G17C G41U
The self-cleavage of the first is higher: 0.156 for the first, 0.123 for the second.

First: G17C G47C
Second: G17C G48C
The self-cleavage of the first is higher: 0.212 for the first, 0.158 for the second.

Compared with G17C G48U, G17C G50A is lower in self-cleavage: 0.194 for the first, 0.142 for the second.

Going from G17C G50U to G17C G56A, the self-cleavage falls from 0.157 to 0.103.

First: G17C G56C
Second: G17C G56U
The self-cleavage of the first is lower: 0.105 for the first, 0.115 for the second.

Going from G17C G58A to G17C G58C, the self-cleavage rises from 0.139 to 0.198.

First: G17C G58U
Second: G17C G65A
The self-cleavage of the first is higher: 0.227 for the first, 0.158 for the second.

First: G17C G65U
Second: G17C G68A
The self-cleavage of the first is lower: 0.131 for the first, 0.331 for the second.

First: G17C G68C
Second: G17C U20A
The self-cleavage of the first is higher: 0.242 for the first, 0.123 for the second.

Compared with G17C U20G, G17C U21C is lower in self-cleavage: 0.132 for the first, 0.0625 for the second.

Compared with G17C U21G, G17C U26A is lower in self-cleavage: 0.229 for the first, 0.156 for the second.

First: G17C U26C
Second: G17C U26G
The self-cleavage of the first is lower: 0.145 for the first, 0.175 for the second.

Going from G17C U36A to G17C U36G, the self-cleavage falls from 0.18 to 0.163.

Going from G17C U38C to G17C U38G, the self-cleavage falls from 0.137 to 0.101.

Going from G17C U43A to G17C U43C, the self-cleavage rises from 0.0954 to 0.111.

Compared with G17C U43G, G17C U46A is higher in self-cleavage: 0.0986 for the first, 0.122 for the second.

Going from G17C U46C to G17C U46G, the self-cleavage falls from 0.119 to 0.101.

Compared with G17C U49A, G17C U49C is higher in self-cleavage: 0.149 for the first, 0.158 for the second.

Going from G17C U49G to G17C U53G, the self-cleavage falls from 0.148 to 0.126.

Compared with G17C U55C, G17C U55G is lower in self-cleavage: 0.138 for the first, 0.062 for the second.

Going from G17C U61C to G17C U61G, the self-cleavage rises from 0.118 to 0.205.

Compared with G17C U62A, G17C U62G is higher in self-cleavage: 0.171 for the first, 0.201 for the second.

Work on G17C U64A yielded a self-cleavage of 0.112.
